Assay results reported in patent US20210332115A1 (Sanofi, published 2021).
Values belong to the binder of their own block, whether it stands above or below them.

How the values were obtained:
[1] = target: T1, Homo sapiens factor Bb protein (human, UniProt P00751 260-764); test: cell-based or functional assay
[2] = target: T1, Homo sapiens factor Bb protein; test: SPR single cycle kinetics; ratio against VH0/Vκ0
In short: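 Protein A-captured IgG (~63 RU) was run at 25 °C in HBS-P+ pH 7.4 against factor Bb at 0.78–6.25 nM in four two-fold steps, with 200 s association per step, one 200 s dissociation and reference subtraction. Relative KD is the KD of VH0/Vκ0 divided by the KD of the variant from the same run.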

[3] = target: T1, Homo sapiens factor Bb protein; test: BLI Octet, biotinylated antibody on SA biosensors
Protocol: Briefly, biotinylated antibodies were loaded onto SA Biosensors equilibrated in PBS, 0.1% BSA, 0.02% Tween-20 (assay buffer). After a 60 second baseline in assay buffer, antibodies were loaded onto the probes for 180 seconds, followed by another 60 second baseline. Association to human (Comptech) or cynomolgus monkey factor Bb (purified in-house) was measured for 300 seconds, followed by a 300 second dissociation. Kinetic parameters were calculated by the Octet Analysis software using a 1:1 binding model.
To determine whether the modification of the Fc portion of the antibodies affected affinity and species cross-reactivity, VH4/VK6-IgG4v2 and VH6/VK7-IgG4v2 were tested alongside their parental antibodies, VH4/VK6 and VH6/VK7, respectively, for their ability to bind human and cynomolgus monkey factor Bb by BLI. VH4/VK6-IgG4v2 and VH6/VK7-IgG4v2 contain mutations in the Fc region that increase the affinity for an Fc receptor.

C2 (Comptech A112) = target: T2, C2 (Comptech A112) (UniProt P06681 21-752); test: ELISA, target coated at 2.5 µg/mL, biotinylated antibody titrated, streptavidin-HRP, OD450 background subtracted
T2 sequence (looked up): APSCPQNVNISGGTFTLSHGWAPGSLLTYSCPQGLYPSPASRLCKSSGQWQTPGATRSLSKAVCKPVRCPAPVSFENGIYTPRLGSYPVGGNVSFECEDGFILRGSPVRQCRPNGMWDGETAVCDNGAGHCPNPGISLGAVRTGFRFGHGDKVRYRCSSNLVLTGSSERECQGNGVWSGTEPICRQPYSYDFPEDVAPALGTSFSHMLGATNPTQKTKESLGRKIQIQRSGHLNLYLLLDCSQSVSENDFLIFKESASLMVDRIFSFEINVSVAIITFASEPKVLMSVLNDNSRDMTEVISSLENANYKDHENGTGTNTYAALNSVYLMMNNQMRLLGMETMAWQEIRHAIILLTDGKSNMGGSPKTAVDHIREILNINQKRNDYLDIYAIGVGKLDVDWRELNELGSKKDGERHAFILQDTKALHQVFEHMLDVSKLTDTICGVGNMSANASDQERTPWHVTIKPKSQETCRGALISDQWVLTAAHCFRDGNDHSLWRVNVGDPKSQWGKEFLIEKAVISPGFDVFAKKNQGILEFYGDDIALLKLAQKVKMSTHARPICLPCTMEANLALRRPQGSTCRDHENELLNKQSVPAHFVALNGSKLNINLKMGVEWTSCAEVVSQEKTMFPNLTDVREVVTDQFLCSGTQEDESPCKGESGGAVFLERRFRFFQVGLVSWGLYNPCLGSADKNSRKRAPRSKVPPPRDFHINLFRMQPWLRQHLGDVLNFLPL
Protocol: Briefly, complement and plasma proteins were coated onto ELISA plates at 2. 5 μg/mL in PBS overnight at 4° C. Plates were then blocked with Casein for 1 hour at room temperature and washed four times with 1× DPBS/0.05% Tween-20 followed by a single wash with 1× DPBS. Serial dilutions starting at 50 μg/ml of biotinylated chimeric parent or VH6/VK7-IgG4v2 were added to the plate in PBS/0.1%casein/0.1%Tween-20 and incubated for 2 hours at room temperature. Plates were washed as described and a 1:10,000 dilution of streptavidin-HRP (Southern Biotech 7100-05) in PBS/0.1% casein/0.1% Tween-20 was added to the plate and incubated for 30 minutes at room temperature. Plates were again washed and Ultra TMP ELISA (Thermo 34028) was added to the plate for 1 minute, followed by stop solution). OD 450 nm was read in a plate reader and background at 620 nm was subtracted. Both the chimeric parent (FIG. 8A) and the humanized variant (FIG. 8B) show complete specificity for factor Bb.

[4] = target: T1, Homo sapiens factor Bb protein; test: BLI, multi-cycle kinetics, antibody loaded on anti-hIgG Fc sensors, human factor Bb in solution (100 nM to 0.14 nM), 1:1 fit
Protocol: Multicycle kinetic analysis was performed on CHO and HEK-produced VH6/VK7-IgG4v2 antibodies using biolayer interferometry. Antibodies were diluted to 10 μg/mL in PBS+ 0.02%. Tween20, 0.1% BSA, 0.05% sodium azide and loaded onto anti-hIgG Fc sensors (pre-equilibrated in the same buffer) for 90 seconds followed by a 60-minute baseline in buffer. Binding of a concentration series of human factor Bb (Complement Technologies, #A155), ranging from 100 nM to 0.14 nM in 2-fold dilutions, was measured in a 300 second association in the same buffer, followed by a 300 second dissociation step.

T1 sequence (P00751 260-764 limits assumed): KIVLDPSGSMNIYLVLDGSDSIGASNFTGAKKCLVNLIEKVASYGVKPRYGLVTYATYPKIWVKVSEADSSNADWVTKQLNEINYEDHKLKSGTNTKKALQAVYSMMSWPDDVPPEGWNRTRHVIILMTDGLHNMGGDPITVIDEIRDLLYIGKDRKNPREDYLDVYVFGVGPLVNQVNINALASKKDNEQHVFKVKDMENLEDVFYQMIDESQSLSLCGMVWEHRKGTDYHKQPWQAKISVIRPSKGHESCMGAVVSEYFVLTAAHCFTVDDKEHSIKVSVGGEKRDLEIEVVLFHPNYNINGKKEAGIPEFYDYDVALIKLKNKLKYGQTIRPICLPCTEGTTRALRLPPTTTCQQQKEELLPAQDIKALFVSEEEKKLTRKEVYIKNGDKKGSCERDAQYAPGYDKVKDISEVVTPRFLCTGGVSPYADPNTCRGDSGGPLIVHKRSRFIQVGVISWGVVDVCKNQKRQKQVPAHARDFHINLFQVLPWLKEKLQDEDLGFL

AP Assay IC50 [1]: 24 nM
Relative KD [2]: 1
B1: VH0/Vκ0 (Chimeric) (antibody, V domains shown)
VH: EVQLVESGGALVKPGGSLKLSCAASGFTFSNYAMSWVRQTPEKRLEWVATISNRGSYTYYPDSVKGRFTISRDNAKNTLYLQMSSLRSEDTALYYCARERPMDYWGQGTSVTVSS
VL: DIVMTQSHKFMSTSVGDRVSITCKASQDVGTAVAWYQQKPGQSPKLLIYWASTRHTGVPDRFTGSGSGTDFTLTITNVQSEDLAVYFCHQHSSNPLTFGAGTKLELK
notes: also called chimeric antibody

Kd [3]: 1.7 nM
binding result (C2 (Comptech A112)): no binding
Kd [4]: 2.9 nM
B2: VH6/Vκ7-IgG4v2 (antibody)
heavy: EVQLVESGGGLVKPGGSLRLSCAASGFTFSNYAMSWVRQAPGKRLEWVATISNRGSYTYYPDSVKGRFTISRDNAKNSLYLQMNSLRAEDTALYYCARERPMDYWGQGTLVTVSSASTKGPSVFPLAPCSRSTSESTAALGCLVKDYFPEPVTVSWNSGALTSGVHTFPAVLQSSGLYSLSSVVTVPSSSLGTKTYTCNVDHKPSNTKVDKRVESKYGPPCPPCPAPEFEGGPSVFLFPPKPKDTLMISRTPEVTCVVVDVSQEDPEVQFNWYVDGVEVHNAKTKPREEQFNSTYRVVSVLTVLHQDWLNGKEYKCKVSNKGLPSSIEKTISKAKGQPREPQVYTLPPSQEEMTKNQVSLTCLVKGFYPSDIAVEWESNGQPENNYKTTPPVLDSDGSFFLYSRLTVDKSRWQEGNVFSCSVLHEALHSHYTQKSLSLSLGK
light: DIQMTQSPSTLSASVGDRVTITCKASQDVGTAVAWYQQKPGKAPKLLIYWASTRHTGVPDRFSGSGSGTDFTLTISSLQAEDFAVYFCHQHSSNPLTFGQGTKLEIKRTVAAPSVFIFPPSDEQLKSGTASVVCLLNNFYPREAKVQWKVDNALQSGNSQESVTEQDSKDSTYSLSSTLTLSKADYEKHKVYACEVTHQGLSSPVTKSFNRGEC
notes: also called VH6/VK7-IgG4v2; VH6/VK7-IgG4v2_HEK
